In article PMC3390394:

How the values were obtained:
[1] = target: Arabidopsis thaliana dihydrodipicolinate synthase 2 (At-DHDPS2) (Arabidopsis thaliana) (UniProt Q9FVC8); test: AUC; sedimentation velocity, c(s) analysis (SEDFIT); 20 mM Tris-HCl, 150 mM NaCl, pH 8.0, 20°C; At-DHDPS2 at 0.75 mg/mL, 50,000 rpm; At-DHDPR2 at 0.1-1.6 mg/mL, 40,000 rpm
[2] = target: Arabidopsis thaliana dihydrodipicolinate synthase 2 (At-DHDPS2) (Arabidopsis thaliana) (UniProt Q9FVC8); test: SEC-MALS; Malvern P3000 column with Viscotek TDA (refractive index, low angle and right angle light scattering); 100 µL of 1.0 mg/mL; 20 mM Tris-HCl, 150 mM NaCl, pH 8.0; 28°C

Arabidopsis thaliana dihydrodipicolinate synthase 2 (At-DHDPS2), sequence (Q9FVC8 40-365): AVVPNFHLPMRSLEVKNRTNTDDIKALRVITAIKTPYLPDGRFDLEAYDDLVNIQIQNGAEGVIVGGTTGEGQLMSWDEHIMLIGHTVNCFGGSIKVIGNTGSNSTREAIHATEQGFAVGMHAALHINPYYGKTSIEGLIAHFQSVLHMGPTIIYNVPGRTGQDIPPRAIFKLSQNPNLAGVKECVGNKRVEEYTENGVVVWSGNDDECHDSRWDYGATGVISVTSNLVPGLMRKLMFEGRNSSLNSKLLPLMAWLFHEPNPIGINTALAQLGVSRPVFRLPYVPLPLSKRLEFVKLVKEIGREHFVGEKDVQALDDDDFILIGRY

Arabidopsis thaliana dihydrodipicolinate synthase 2 (At-DHDPS2) (from UniProt Q9FVC8 40-365) (enzyme)
stoichiometry N [1]: 4
stoichiometry N [2]: 4
